Results on 4 molecules are retold here after US20180312579A1 (Genentech, published 2018).

In assay [1] the target is T1, human RSPO2 with C-terminal HA tag, stably expressed in 293 cells (human, UniProt Q6UXX9 22-243).
T1 construct: Whole open reading frame was expressed from a lentiviral vector in HEK-293 cells sorted for high, medium or low expression; formalin-fixed paraffin-embedded pellets; also called hRSPO2; RSPO2 Hi
The assay can be described thus: IHC, FFPE 293 cell pellet, RSPO2 Hi.

Assay [2] deals with T2, human RSPO1 with C-terminal HA tag, stably expressed in 293 cells (human, UniProt Q2MKA7 21-263).
T2 construct: also called hRSPO1; RSPO1 Hi
T2 sequence (Q2MKA7 other isoform, or with tags, fused parts or gaps limits assumed): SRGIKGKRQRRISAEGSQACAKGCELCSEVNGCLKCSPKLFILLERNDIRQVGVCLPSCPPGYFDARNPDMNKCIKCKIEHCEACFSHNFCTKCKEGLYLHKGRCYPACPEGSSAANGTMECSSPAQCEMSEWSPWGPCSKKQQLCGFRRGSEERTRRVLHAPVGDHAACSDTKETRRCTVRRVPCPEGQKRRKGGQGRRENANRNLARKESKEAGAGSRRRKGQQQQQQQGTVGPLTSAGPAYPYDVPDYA
In words: IHC, FFPE 293 cell pellet, RSPO1 Hi; - = not significant staining.

Assay [3] has as its target T1, human RSPO2 with C-terminal HA tag, …. The assay can be described thus: IHC, FFPE 293 cell pellet, RSPO2 Med.
Assay [4] has the same target. In words: IHC, FFPE 293 cell pellet, RSPO2 Low.
The next assay has as its target mouse RSPO2 (mouse, UniProt Q8BFU0 22-205, limits assumed). In words: cell-based or functional assay.
A further assay addresses T3, recombinant human RSPO3 (human, UniProt Q9BXY4 22-272).
T3 sequence: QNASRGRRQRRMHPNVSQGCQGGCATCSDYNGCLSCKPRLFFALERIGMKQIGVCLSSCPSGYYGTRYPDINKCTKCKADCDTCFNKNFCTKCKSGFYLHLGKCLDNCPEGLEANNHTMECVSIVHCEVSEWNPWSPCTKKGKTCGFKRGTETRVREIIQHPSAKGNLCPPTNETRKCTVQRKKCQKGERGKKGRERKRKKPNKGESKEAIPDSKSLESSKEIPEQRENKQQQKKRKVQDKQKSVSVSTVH
In words: cell-based or functional assay.

For the next assay, the target named is T4, mouse RSPO3 (mouse, UniProt Q2TJ95 22-277, limits assumed).
T4 sequence (looked up): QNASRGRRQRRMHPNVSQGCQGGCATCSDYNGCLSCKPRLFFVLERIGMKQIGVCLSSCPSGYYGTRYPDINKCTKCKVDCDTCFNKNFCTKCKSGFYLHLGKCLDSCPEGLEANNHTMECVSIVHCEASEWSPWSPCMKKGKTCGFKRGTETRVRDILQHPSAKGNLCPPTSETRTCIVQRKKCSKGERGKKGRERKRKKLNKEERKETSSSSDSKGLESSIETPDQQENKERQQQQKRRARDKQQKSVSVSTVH
In words: cell-based or functional assay.

Another assay has as its target cynomolgus RSPO2 (cynomolgus, UniProt G7PCH9 22-243). In words: cell-based or functional assay.
The target in another assay is recombinant human RSPO2 (human, UniProt Q6UXX9 22-243). In words: cell-based or functional assay.
For a further assay, the target named is T5, cynomolgus RSPO3 (cynomolgus, UniProt A0A2K5UTQ7 22-273).
T5 sequence: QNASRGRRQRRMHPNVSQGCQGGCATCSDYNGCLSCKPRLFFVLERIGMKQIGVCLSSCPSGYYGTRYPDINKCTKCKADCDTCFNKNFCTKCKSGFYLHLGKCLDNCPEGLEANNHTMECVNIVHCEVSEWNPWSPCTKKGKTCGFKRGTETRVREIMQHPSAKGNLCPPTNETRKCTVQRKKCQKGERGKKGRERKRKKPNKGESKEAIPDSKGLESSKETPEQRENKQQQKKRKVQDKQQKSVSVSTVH
In words: cell-based or functional assay.

The target of assay [5] is T6, human RSPO2 L186P variant (human, UniProt Q6UXX9 22-243).
T6 chain: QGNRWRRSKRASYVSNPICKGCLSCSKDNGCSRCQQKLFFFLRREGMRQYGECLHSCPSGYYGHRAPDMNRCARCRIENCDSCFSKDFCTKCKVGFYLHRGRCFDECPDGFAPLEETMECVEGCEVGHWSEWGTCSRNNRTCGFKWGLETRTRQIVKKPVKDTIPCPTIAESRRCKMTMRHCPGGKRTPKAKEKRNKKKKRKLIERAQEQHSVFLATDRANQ
The assay can be described thus: cell-based or functional assay.

Assay [6] has as its target T7, FLAG-tagged human RSPO2 (Genentech) (human, UniProt Q6UXX9 22-243).
T7 construct: also called hRSPO2; RSPO2 coated plates; not shown: FLAG tag
The assay can be described thus: competitive binding ELISA: titrated against biotinylated RNF43-Flag (RNF43-ECD) binding to plate-coated hRSPO2; signal = bound RNF43, normalized OD.

Assay [7] has as its target T8, human RSPO4 with C-terminal HA tag, stably expressed in 293 cells (human, UniProt Q2I0M5 20-234).
T8 construct: also called hRSPO4; RSPO4 Hi
The assay can be described thus: IHC, FFPE 293 cell pellet, RSPO4 Hi; - = not significant staining.

Assay [8] deals with T9, human RSPO3 with C-terminal HA tag, stably expressed in 293 cells (human, UniProt Q9BXY4 22-272).
T9 construct: Whole open reading frame expressed in HEK-293 cells (high, medium, low); FFPE pellets; also called hRSPO3; RSPO3 Hi
T9 sequence: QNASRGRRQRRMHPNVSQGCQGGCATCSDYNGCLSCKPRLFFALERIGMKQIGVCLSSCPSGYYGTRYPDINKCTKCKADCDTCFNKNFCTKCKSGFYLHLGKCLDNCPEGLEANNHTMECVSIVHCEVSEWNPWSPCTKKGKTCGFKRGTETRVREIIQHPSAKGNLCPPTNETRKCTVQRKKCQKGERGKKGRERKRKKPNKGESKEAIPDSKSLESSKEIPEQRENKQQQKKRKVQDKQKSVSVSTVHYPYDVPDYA
The assay can be described thus: IHC, FFPE 293 cell pellet, RSPO3 Hi; - = not significant staining.

Assay [9] concerns the target T9, human RSPO3 with C-terminal HA tag, …. The assay can be described thus: IHC, FFPE 293 cell pellet, RSPO3 Med.
Assay [10] has as its target T7, FLAG-tagged human RSPO2 (Genentech). The assay can be described thus: competitive binding ELISA: antibody titrated against LGR4-Fc (LGR4-ECD) binding to plate-coated hRSPO2; signal = bound LGR4-Fc, OD(450/630)/OD no antibody. The protocol: (§1) To measure the activity of anti-RSPO antibodies in blocking the binding of LGR4 and -5 ECDs to RSPOs, MaxiSorp 384-well microwell plates (Thermo Scientific Nunc, Roskilde, Denmark) were coated with 25 ul/well of 0.5 μg/ml hRSPO2 or hRSPO3 (Genentech) in 50 mM carbonate buffer, pH 9.6, overnight at 4° C. Plates were blocked with at 80 ul/well of 0.5% bovine serum albumin, 15 parts per million Proclin 300 in phosphate buffered saline (PBS), pH 7.4, for 1 hour. Serially diluted anti-RSPO antibodies ([…] in […] serial dilution plus buffer blank) containing 0.1 μg/ml LGR4-Fc or 0.015 μg/ml LGR5-Fc in assay buffer (0.5% BSA, 0.05% polysorbate 20, 15 parts per million Proclin 300 in PBS) were added to the plates at 25 ul/well. After a 2-hour incubation, LGR4-Fc and LGR5-Fc bound to the plates were detected using peroxidase labeled goat F(ab′)2 anti-human Fc (Jackson ImmunoResearch, West Grove, Pa.). After a 1 hour incubation, the substrate 3,3′,5,5′-tetramethyl benzidine (Moss Inc., Pasadena, Md.) was added to the plates and the reaction was stopped by adding 1 M phosphoric acid. Plates were washed with PBS, pH 7.4, containing 0.05% tween 20, between steps and all the incubation steps following the coating step were performed at room temperature on an orbital shaker. Absorbance was read at 450 nm on a multiskan Ascent reader (Thermo Scientific, Hudson, N.H.).
Background: An ELISA detects its analyte on a solid surface through an enzyme-linked reagent.

The target of assay [11] is T10, FLAG-tagged human RSPO3 (Genentech) (human, UniProt Q9BXY4 22-272).
T10 construct: also called hRSPO3; RSPO3 coated plates; not shown: FLAG tag
T10 sequence: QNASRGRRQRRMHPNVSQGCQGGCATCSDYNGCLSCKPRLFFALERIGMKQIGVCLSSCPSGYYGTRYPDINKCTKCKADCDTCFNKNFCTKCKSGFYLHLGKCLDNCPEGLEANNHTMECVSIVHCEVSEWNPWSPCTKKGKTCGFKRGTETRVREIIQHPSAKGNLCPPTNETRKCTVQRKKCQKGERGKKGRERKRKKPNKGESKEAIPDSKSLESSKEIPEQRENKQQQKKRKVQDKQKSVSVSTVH
In words: competitive binding ELISA: titrated against biotinylated RNF43-Flag (RNF43-ECD) binding to plate-coated hRSPO3; signal = bound RNF43, normalized OD.

The target in assay [12] is T10, FLAG-tagged human RSPO3 (Genentech). The assay can be described thus: competitive binding ELISA: antibody titrated against LGR4-Fc (LGR4-ECD) binding to plate-coated hRSPO3; signal = bound LGR4-Fc, OD(450/630)/OD no antibody. As to the method: as §1
Assay [13] concerns the target T9, human RSPO3 with C-terminal HA tag, …. The assay can be described thus: IHC, FFPE 293 cell pellet, RSPO3 Low.
Assay [14] shares this target. In words: IHC, FFPE 293 cell pellet, RSPO3 Hi.

Sequence of mouse RSPO2 (Q8BFU0 22-205 limits assumed): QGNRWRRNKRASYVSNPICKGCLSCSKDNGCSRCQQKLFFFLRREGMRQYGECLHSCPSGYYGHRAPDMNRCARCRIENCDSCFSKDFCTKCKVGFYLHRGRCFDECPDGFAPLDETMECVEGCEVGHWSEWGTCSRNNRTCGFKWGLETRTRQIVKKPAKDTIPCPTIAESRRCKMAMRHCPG
T8 sequence (Q2I0M5 other isoform, or with tags, fused parts or gaps limits assumed): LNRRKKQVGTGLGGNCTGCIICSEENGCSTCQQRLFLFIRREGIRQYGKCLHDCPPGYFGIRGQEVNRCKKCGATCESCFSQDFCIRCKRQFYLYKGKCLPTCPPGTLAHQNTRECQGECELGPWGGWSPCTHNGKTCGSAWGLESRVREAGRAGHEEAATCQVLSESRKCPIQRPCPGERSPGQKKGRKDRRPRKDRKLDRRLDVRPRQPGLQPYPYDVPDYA

B1: 36D2 (antibody, V domains shown)
VH: QIQLQESGPGLVKPSQSLSLTCSVTGNSITSSDWSWIRQFPGKKLEWMGYMNYGGGTYYNPSLENRISITRDTSKNQFFLHLKSVTTEDTATYYCARERPHPYAYFDVWGQGIQVTVSS
VL: ELVFTQPQSVSGSLGQEISISCTRSSGNIGSNYVSWYQQQSSNKPRLLIYKFDQRPSGVPDRFSGSTDSSSNSGILTISRLQPEDEGDYYCLSGYDKYVFGSGTQLTLL
notes: also called monoclonal antibody 36D2
For B1, the “percentage of cells staining” value in assay [1] is over 95%; in [3], 50%; in assay [4], under 5%. Besides, the binding result in assay [2], in assay [7] and in assay [8] was “no binding” throughout. Besides, the “IC50, WNT luciferase reporter, bivalent antibody” value (“IC50, WNT luciferase reporter” below) with mouse RSPO2 is 0.044 nM; with recombinant human RSPO3 it was over 500 nM; in the assay with mouse RSPO3, over 500 nM; in the assay with cynomolgus RSPO2 it was 0.013 nM; in the assay with recombinant human RSPO2 it was 0.012 nM; with cynomolgus RSPO3 it was over 500 nM. Besides, in assay [5], the “IC50 (read off the curve), WNT reporter RLU stimulated by 38 pM rhRSPO2 L186P” value is about 20 pM. In addition, the “IC50 (read off the curve)” value in [6] was about 1 µg/mL.

B2: 11F11 (antibody, V domains shown)
VH: QVQLQQSGPQLVKPGFSVKFSCKASGITFTEYYVTWVKQRAGQGLEWVGDIDPENGDTDYNQKFQGKATITADKSSSTAYMELSSLTSEDSAVYYCATGYDYAFDSWGQGTLVTVSS
VL: QPVLTQSPSASASLGASVKLTCTLSSQHSSYGITWLQQHPDKAPKCVMYLRSDGSHSKGDGIPDRFSGSSSGAHRYLSISNVQPEDEAIYFCVTYDSTVGVFGSGTQLTVP
notes: also called monoclonal antibody 11F11
As to B2, the “IC50, WNT luciferase reporter” value is over 500 nM with mouse RSPO2; over 500 nM with recombinant human RSPO3; over 500 nM in the assay with mouse RSPO3; 1.9 nM with cynomolgus RSPO2; 0.179 nM with recombinant human RSPO2; over 500 nM in the assay with cynomolgus RSPO3. Also, the binding result in [8] was “no binding”.

B3: 26E11 (antibody, V domains shown)
VH: EVQLQESGPSLVKPSQTLSLTCSVTGDSITSGYWSWIRKFPGNKLEFMGYISFSGKTYYIPSLKSRVSITRDTSKNQYYLQLNSVTTEDTATYYCATYHGYGGPWFAYWGQGTLVTVSS
VL: DIKMTQSPSSMYASLGERVTITCKASQDIDSYLSWFQQKPGKSPKTLIYLTNRLIDGVPSRFSGSGSGQDYSLTINSLEYEDMGIYYCLQYDEFPVTFGAGTRLEIK
notes: also called monoclonal antibody 26E11; anti-RSPO2/3 antibody
In the case of B3, the “percentage of cells staining” value came out at 70% in assay [1]; 70% in assay [9]; 50% in [13]; 40% in assay [3]; 10% in assay [4]; 90% in assay [14]. The “IC50 (read off the curve)” value was about 0.09 µg/mL in [10], about 0.08 µg/mL in assay [11], about 0.1 µg/mL in assay [12] and about 0.1 µg/mL in assay [6]. Besides, the binding result in [2] and in assay [7] was “no binding” in each case. In addition, the “IC50, WNT luciferase reporter” value came to 24 nM in the assay with mouse RSPO2; 1e-05 nM with recombinant human RSPO3; 0.0004 nM with mouse RSPO3; 2.7 nM with cynomolgus RSPO2; 9.8 nM in the assay with recombinant human RSPO2; 0.0002 nM in the assay with cynomolgus RSPO3.

B4: 49G5 (antibody, V domains shown)
VH: QVQLKESGPGLVQPSQTLSLTCTVSGFSLTSYNIHWVRQPPGKGLEWMGAVWRGGGTYYNSNLKSRVIITRDTSKSQVLLKLNNLQHEDTAMYYCAREELRYVYFDVWGQGIQVTVSS
VL: QPLLTQSPSVSASLGASVKLTCTLSSQYNTYYIEWYQQHPDKSPKFLMQLSDGSHSKGDGIPDRFSGSSSGAHRYLSISNLQLEDEAIYYCGVSDVSLYVFGSGTQLTVL
notes: also called monoclonal antibody 49G5
Take B4: the “percentage of cells staining” value in [1] turned out to be 95%; in assay [3], 60%; in assay [4], 40%. For the same molecule, the binding result in assay [2], in assay [7] and in [8] was “no binding” each time.
